Data published in the MegaScale stability set (Tsuboyama et al. 2023).

B1: 2M8U (parent)
chain: TKAQVIEAFKVFDRDGNGYVTVDYLRKVLNELGDMMPADEIEEMIYEADPQNSGYVQYETFVGMLFL

Variants of: B1
Assay: folding stability dG (cDNA display proteolysis); higher = more stable
Settings: PBS, room temperature

Row | Variant | folding stability dG
1 | TKAQVIEAFKVFDRDGNGYVTVDYLRKVLNTLGDMMPADEIEEMIYEADPQNSGYVQYETFVGMLFL [E31T] | 3.58 kcal/mol
2 | TKAQVIEAFKVFDRDGNGYVTVDYLRKVLNYLGDMMPADEIEEMIYEADPQNSGYVQYETFVGMLFL [E31Y] | 3.4 kcal/mol
3 | TKAQVIEAFKVFDRDGNGYVTVDYLRKVLNQLGDMMPADEIEEMIYEADPQNSGYVQYETFVGMLFL [E31Q] | 3.53 kcal/mol
4 | TKAQVIEAFKVFDRDGNGYVTVDYLRKVLNELGDMMPADEIEEMIYESDPQNSGYVQYETFVGMLFL [A48S] | 3.53 kcal/mol
5 | TKAQVIEAFKVFDRDGNGYVTVDYLRKVLNELGDMMPADEIEEMIYEADPQNSGYQQYETFVGMLFL [V56Q] | 1.96 kcal/mol
6 | TKAQVIEAFKVFDRDGNGYVTVDYLRKVLNELGDNMPADEIEEMIYEADPQNSGYVQYETFVGMLFL [M35N] | 2.96 kcal/mol
7 | TKAQVIEAFKVFDRDGNGYVTVDYLRKVLNELGDLMPADEIEEMIYEADPQNSGYVQYETFVGMLFL [M35L] | 3.68 kcal/mol
8 | TKAQVIEAFKVFDRDGNGYVTVDYLRKVLNELGDCMPADEIEEMIYEADPQNSGYVQYETFVGMLFL [M35C] | 3.25 kcal/mol
9 | TKAQVIEAFKVFDRDGNGYVTVDYLRKVLNELGIMMPADEIEEMIYEADPQNSGYVQYETFVGMLFL [D34I] | 4.72 kcal/mol
10 | TKAQVIEAFKVFDRDGNGYVTVDYLRKVLNELGGMMPADEIEEMIYEADPQNSGYVQYETFVGMLFL [D34G] | 3.42 kcal/mol
11 | TKAQVIEAFKVFDRDGNGYVTVDYLRKVLNELGDMCPADEIEEMIYEADPQNSGYVQYETFVGMLFL [M36C] | 3.44 kcal/mol
12 | TKAQVIEAFKVFDRDGNGYVTVDYLRKVLNELGDMAPADEIEEMIYEADPQNSGYVQYETFVGMLFL [M36A] | 3.8 kcal/mol
13 | TKAQVIEAFKVFDRDGNGYVTVDYLRKVLNELGDMMPWDEIEEMIYEADPQNSGYVQYETFVGMLFL [A38W] | 4 kcal/mol
14 | TKAQVIEAFKVFDRDGNGYVTVDYLRKVLNELGDMMPADEIEEMIYEADPQNTGYVQYETFVGMLFL [S53T] | 3.49 kcal/mol
15 | TKAQVIEAFKVFDRDGNGYVTVDYLRKTLNELGDMMPADEIEEMIYEADPQNSGYVQYETFVGMLFL [V28T] | 2.76 kcal/mol
16 | TKAQVIEAFKVFDRDGNGYVTVDYLRKKLNELGDMMPADEIEEMIYEADPQNSGYVQYETFVGMLFL [V28K] | 2.47 kcal/mol
17 | TKAQVIEAFKVFDRDGNGYVTVDYLRKVLNELGDMMPADEIEEMIYEAIPQNSGYVQYETFVGMLFL [D49I] | 2.49 kcal/mol
18 | TKAQVIEAFKVFDRDGNGYVTVDYLRKVLNELGDMMPADEIEEMIYEANPQNSGYVQYETFVGMLFL [D49N] | 2.75 kcal/mol
19 | TKAQVIEAFKVFDRDGNGYVTVDYLRKVLNELGDMMPADEIEEMIYEAFPQNSGYVQYETFVGMLFL [D49F] | 2.43 kcal/mol
20 | TKAQVIEAFKVFDRDGNGYVTVDYLRKVLNELGDMMPADEIEEMIYEARPQNSGYVQYETFVGMLFL [D49R] | 2.21 kcal/mol
21 | TKAQVIEAFKVFDRDGNGAVTVDYLRKVLNELGDMMPADEIEEMIYEADPQNSGYVQYETFVGMLFL [Y19A] | 2.7 kcal/mol
22 | TKAQVIEAFKVFDRDGNGYVTVDYLRTVLNELGDMMPADEIEEMIYEADPQNSGYVQYETFVGMLFL [K27T] | 3.26 kcal/mol
23 | TKAQVIEAFKVFDRDGNGYVTVDYLRSVLNELGDMMPADEIEEMIYEADPQNSGYVQYETFVGMLFL [K27S] | 3.2 kcal/mol
24 | TKAQVIEAFKVFDRDGNGYVTVDYLRKVLNELTDMMPADEIEEMIYEADPQNSGYVQYETFVGMLFL [G33T] | 3.81 kcal/mol
25 | TKAQVIEAFKVFDRDGNGYVTVDYLRKVLNELVDMMPADEIEEMIYEADPQNSGYVQYETFVGMLFL [G33V] | 3.83 kcal/mol
26 | TKAQVIEAFKVFDRDGNGYVTVDYLRKVLNELGDMMPADEIENMIYEADPQNSGYVQYETFVGMLFL [E43N] | 3.64 kcal/mol
27 | TKAQVIEAFKVFDRDGNGYVTVDYLRKVLNELGDMMPADEIEFMIYEADPQNSGYVQYETFVGMLFL [E43F] | 3.8 kcal/mol

Row | Variant | folding stability dG
28 | TKAQVIEAFKVFDRDGNGYVTVDYLRKVLNELGDMMPADEIEEMIYEADPQNSGPVQYETFVGMLFL [Y55P] | 1.77 kcal/mol
29 | TKAQVIEAFKVFDRDGNGYVTVDYLRKVLNELGDMMPADEIEEMIYEADPQNSGGVQYETFVGMLFL [Y55G] | 2.16 kcal/mol
30 | TKAQVIEAFKVFDRDGNRYVTVDYLRKVLNELGDMMPADEIEEMIYEADPQNSGYVQYETFVGMLFL [G18R] | 2.06 kcal/mol
31 | TKAQVIEAFKVFDRDGNLYVTVDYLRKVLNELGDMMPADEIEEMIYEADPQNSGYVQYETFVGMLFL [G18L] | 2.92 kcal/mol
32 | TKAQVIEAFKVFDRDGQGYVTVDYLRKVLNELGDMMPADEIEEMIYEADPQNSGYVQYETFVGMLFL [N17Q] | 3.12 kcal/mol
33 | TKAQVIEAFKVFDRDGNGYVTVDYLRKVLNELGDMMPADEIEEMIYEADPQNSGYVQYETFLGMLFL [V62L] | 2.76 kcal/mol
34 | TKAQVIEAFKVFDRDGNGYVTVDYLRKVLNELGDMMPADEIEEMIYEADPQNSGYVQYETFQGMLFL [V62Q] | 1.94 kcal/mol
35 | TKAQVIEAFKVFDRDGNGYVTVDYLRKVLNELGDMMPADEIEEMIYEADPQNSGYVQYETFVGHLFL [M64H] | 3.69 kcal/mol
36 | TKAQVSEAFKVFDRDGNGYVTVDYLRKVLNELGDMMPADEIEEMIYEADPQNSGYVQYETFVGMLFL [I6S] | 2.25 kcal/mol
37 | TKAQVIEATKVFDRDGNGYVTVDYLRKVLNELGDMMPADEIEEMIYEADPQNSGYVQYETFVGMLFL [F9T] | 2.47 kcal/mol
38 | TKAQVIEAFKVFDRDGNGYVTVDYLRKVLNELGDMMPADEPEEMIYEADPQNSGYVQYETFVGMLFL [I41P] | 1.98 kcal/mol
39 | TKAQDIEAFKVFDRDGNGYVTVDYLRKVLNELGDMMPADEIEEMIYEADPQNSGYVQYETFVGMLFL [V5D] | 1.89 kcal/mol
40 | TKAQVIEAFKVFDSDGNGYVTVDYLRKVLNELGDMMPADEIEEMIYEADPQNSGYVQYETFVGMLFL [R14S] | 3.58 kcal/mol
41 | TKAQVIEAFKVFDRDGNGYVTVDYLRKVLNELGDMMPAPEIEEMIYEADPQNSGYVQYETFVGMLFL [D39P] | 3.68 kcal/mol
42 | TKAQVIEAFKVFDRDGNGYVTVDYLRKVLNELGDMMPANEIEEMIYEADPQNSGYVQYETFVGMLFL [D39N] | 3.68 kcal/mol
43 | TKAQVIEAFKVFDRDGNGYVTVDYLRKVLNELGDMMPADEIREMIYEADPQNSGYVQYETFVGMLFL [E42R] | 3.14 kcal/mol
44 | TKAQVIEAFKVFDRDGNGYVTVDYLRKVLNELGDMMPADEIVEMIYEADPQNSGYVQYETFVGMLFL [E42V] | 3.01 kcal/mol
45 | TKAQVIEAFKVFDRDGNGYVTQDYLRKVLNELGDMMPADEIEEMIYEADPQNSGYVQYETFVGMLFL [V22Q] | 2.95 kcal/mol
46 | TKAQVIEAFKVFDRDGNGYVTCDYLRKVLNELGDMMPADEIEEMIYEADPQNSGYVQYETFVGMLFL [V22C] | 2.88 kcal/mol
47 | TKAQVIEAFKVFDRDRNGYVTVDYLRKVLNELGDMMPADEIEEMIYEADPQNSGYVQYETFVGMLFL [G16R] | 2.65 kcal/mol
48 | TKAQVIEAFKVFDRDGNGYVTVDYLRKVLNELGDMMPADEIEEMIYEADPQNSGYVIYETFVGMLFL [Q57I] | 2.96 kcal/mol
49 | TKAQVIEAFKVFDRDGNGYVTVDYLRKVLNELGDMMPADEIEEMIYEADPQNSGYVCYETFVGMLFL [Q57C] | 3.25 kcal/mol
50 | TKAQVIEAFKVFDRDGNGYVTVDYLSKVLNELGDMMPADEIEEMIYEADPQNSGYVQYETFVGMLFL [R26S] | 2.42 kcal/mol
51 | TKAQVIEAFKVFDRQGNGYVTVDYLRKVLNELGDMMPADEIEEMIYEADPQNSGYVQYETFVGMLFL [D15Q] | 3.02 kcal/mol
52 | TKAQVIEAFKVFDRWGNGYVTVDYLRKVLNELGDMMPADEIEEMIYEADPQNSGYVQYETFVGMLFL [D15W] | 2.76 kcal/mol
53 | TIAQVIEAFKVFDRDGNGYVTVDYLRKVLNELGDMMPADEIEEMIYEADPQNSGYVQYETFVGMLFL [K2I] | 3.46 kcal/mol
54 | TGAQVIEAFKVFDRDGNGYVTVDYLRKVLNELGDMMPADEIEEMIYEADPQNSGYVQYETFVGMLFL [K2G] | 2.52 kcal/mol

Row | Variant | folding stability dG
55 | TKAQVIEAFKVFDRDGNGYVTVTYLRKVLNELGDMMPADEIEEMIYEADPQNSGYVQYETFVGMLFL [D23T] | 3.65 kcal/mol
56 | TKAQVIEAFKVFDRDGNGYVTVDYLRKVLNELGDMMPADEIEEMIYEADPQNSGYVQYETFVLMLFL [G63L] | 3.36 kcal/mol
57 | TKAQVIEAFKVFDRDGNGYVVVDYLRKVLNELGDMMPADEIEEMIYEADPQNSGYVQYETFVGMLFL [T21V] | 3.05 kcal/mol
58 | TKAQVIEAFKVFDRDGNGYVQVDYLRKVLNELGDMMPADEIEEMIYEADPQNSGYVQYETFVGMLFL [T21Q] | 3.7 kcal/mol
59 | PKAQVIEAFKVFDRDGNGYVTVDYLRKVLNELGDMMPADEIEEMIYEADPQNSGYVQYETFVGMLFL [T1P] | 2.6 kcal/mol
60 | RKAQVIEAFKVFDRDGNGYVTVDYLRKVLNELGDMMPADEIEEMIYEADPQNSGYVQYETFVGMLFL [T1R] | 3.33 kcal/mol
61 | QKAQVIEAFKVFDRDGNGYVTVDYLRKVLNELGDMMPADEIEEMIYEADPQNSGYVQYETFVGMLFL [T1Q] | 3.13 kcal/mol
62 | TKAQVIEAFKVFDRDGNGYVTVDYLRKVLNELGDMMPADEIEEMQYEADPQNSGYVQYETFVGMLFL [I45Q] | 1.91 kcal/mol
63 | TKAQVIEAFKVFDRDGNGYVTVDYLRKVLNELGDMMPADEIEEMKYEADPQNSGYVQYETFVGMLFL [I45K] | 2.41 kcal/mol
64 | TKAQVIEAFKVFDRDGNGYVTVDYLRKVLNELGDMMPADEIEEMRYEADPQNSGYVQYETFVGMLFL [I45R] | 2.06 kcal/mol
65 | TKAQVIEAFKVFDRDGNGYVTVDYLRKVLNELGDMMPADEIEEMIYEADPQNSGYVQYETFVGMLFQ [L67Q] | 3.8 kcal/mol
66 | TKAQVIEAFKVFDRDGNGYVTVDYLRKVLNELGDMMPADEIEEMIYEADPQNSGYVQYETFVGMLFR [L67R] | 3.81 kcal/mol
67 | TKAQVIEAFKVFDRDGNGYVTVDYLRKVLNELGDMMPADEIEEMIYEADKQNSGYVQYETFVGMLFL [P50K] | 3.39 kcal/mol
68 | TKAQVIEAFKVFDRDGNGYVTVDYLRKVLNELGDMMPADEIEEMIYEADHQNSGYVQYETFVGMLFL [P50H] | 3.07 kcal/mol
69 | TKAQVIEAFKVFDRDGNGYVTVDYLRKVLNELGDMMPADEIEEMIYEADSQNSGYVQYETFVGMLFL [P50S] | 3.29 kcal/mol
70 | TKAIVIEAFKVFDRDGNGYVTVDYLRKVLNELGDMMPADEIEEMIYEADPQNSGYVQYETFVGMLFL [Q4I] | 3.15 kcal/mol
71 | TKAQVIEAFKVFDRDGNGYVTVDYLRKVLNELGDMMPADEIEEMIYEADPQNSTYVQYETFVGMLFL [G54T] | 2.35 kcal/mol
72 | TKAQVIEAFKEFDRDGNGYVTVDYLRKVLNELGDMMPADEIEEMIYEADPQNSGYVQYETFVGMLFL [V11E] | 3.52 kcal/mol
73 | TKAQVIEAFKYFDRDGNGYVTVDYLRKVLNELGDMMPADEIEEMIYEADPQNSGYVQYETFVGMLFL [V11Y] | 3.07 kcal/mol
74 | TKAQVIEAFKGFDRDGNGYVTVDYLRKVLNELGDMMPADEIEEMIYEADPQNSGYVQYETFVGMLFL [V11G] | 3.28 kcal/mol
75 | TKAQVIEAFKVFDRDGNGYVTVDYLRKVLNELGDMMPADEIEEMIYEADPQNSGYVQYETPVGMLFL [F61P] | 0.783 kcal/mol
76 | TKAQVIERFKVFDRDGNGYVTVDYLRKVLNELGDMMPADEIEEMIYEADPQNSGYVQYETFVGMLFL [A8R] | 3.6 kcal/mol
77 | TKAQVIEAFKVFDRDGNGYGTVDYLRKVLNELGDMMPADEIEEMIYEADPQNSGYVQYETFVGMLFL [V20G] | 1.83 kcal/mol
78 | TKAQVIEAFKVFQRDGNGYVTVDYLRKVLNELGDMMPADEIEEMIYEADPQNSGYVQYETFVGMLFL [D13Q] | 1.87 kcal/mol
79 | TKAQVIEAFKVFDRDGNGYVTVDYLRKVLNELGDMMPADEIEEMIYEADPQNSGYVQYMTFVGMLFL [E59M] | 3.93 kcal/mol
80 | TKAQVIEAFKVFDRDGNGYVTVDYLRKVLNELGDMMPADEIEEMIYEADPQNSGYVQYRTFVGMLFL [E59R] | 3.06 kcal/mol
